Assay results taken from the supplement of paper PMC10065799, “High-throughput profiling of sequence recognition by tyrosine kinases and SH2 domains using bacterial peptide display” (eLife, 2023).

What was measured:
EPHB1 = EPHB1 (UniProt P54762); test: phosphorylation enrichment, bacterial display (enrichment ratio); higher = better substrate or ligand; peptides without Tyr show the background
MERTK = MERTK (UniProt Q12866); test: as above
EPHB2 = EPHB2 (UniProt P29323); test: as above
Jak2 = Jak2 (UniProt O60674); test: as above
Chain of Jak2 (O60674 whole entry, looked up): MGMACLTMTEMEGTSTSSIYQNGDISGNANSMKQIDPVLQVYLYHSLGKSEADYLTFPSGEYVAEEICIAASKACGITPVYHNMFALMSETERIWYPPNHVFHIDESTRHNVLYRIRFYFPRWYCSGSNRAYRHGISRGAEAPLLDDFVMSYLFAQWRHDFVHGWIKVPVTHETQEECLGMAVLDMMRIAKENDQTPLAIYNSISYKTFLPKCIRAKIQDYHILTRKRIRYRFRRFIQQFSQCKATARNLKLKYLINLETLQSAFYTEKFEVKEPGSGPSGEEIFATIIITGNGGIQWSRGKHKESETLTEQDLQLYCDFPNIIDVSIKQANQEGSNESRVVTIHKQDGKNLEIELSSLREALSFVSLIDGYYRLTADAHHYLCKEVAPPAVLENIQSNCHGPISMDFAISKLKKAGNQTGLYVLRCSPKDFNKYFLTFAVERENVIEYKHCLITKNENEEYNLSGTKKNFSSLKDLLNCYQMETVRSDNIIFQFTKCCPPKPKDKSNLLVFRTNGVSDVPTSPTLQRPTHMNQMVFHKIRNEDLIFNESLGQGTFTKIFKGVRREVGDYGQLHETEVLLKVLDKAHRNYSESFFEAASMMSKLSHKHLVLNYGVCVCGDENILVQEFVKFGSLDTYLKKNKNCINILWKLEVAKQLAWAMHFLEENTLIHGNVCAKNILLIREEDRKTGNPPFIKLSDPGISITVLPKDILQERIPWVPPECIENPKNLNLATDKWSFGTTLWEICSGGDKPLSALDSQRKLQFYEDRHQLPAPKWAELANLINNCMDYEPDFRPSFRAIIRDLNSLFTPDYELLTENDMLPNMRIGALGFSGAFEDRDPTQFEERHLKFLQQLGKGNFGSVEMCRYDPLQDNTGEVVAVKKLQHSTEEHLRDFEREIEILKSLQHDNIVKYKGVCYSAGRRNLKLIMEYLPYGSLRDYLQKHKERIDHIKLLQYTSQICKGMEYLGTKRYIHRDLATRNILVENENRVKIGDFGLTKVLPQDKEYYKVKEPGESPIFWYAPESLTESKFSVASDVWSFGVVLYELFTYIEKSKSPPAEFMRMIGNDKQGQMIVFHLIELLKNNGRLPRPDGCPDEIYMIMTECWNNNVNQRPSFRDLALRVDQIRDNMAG

FGFR1 = FGFR1 (UniProt P11362); test: as above
Fes = Fes (UniProt P07332); test: as above
Chain of Fes (P07332 whole entry, looked up): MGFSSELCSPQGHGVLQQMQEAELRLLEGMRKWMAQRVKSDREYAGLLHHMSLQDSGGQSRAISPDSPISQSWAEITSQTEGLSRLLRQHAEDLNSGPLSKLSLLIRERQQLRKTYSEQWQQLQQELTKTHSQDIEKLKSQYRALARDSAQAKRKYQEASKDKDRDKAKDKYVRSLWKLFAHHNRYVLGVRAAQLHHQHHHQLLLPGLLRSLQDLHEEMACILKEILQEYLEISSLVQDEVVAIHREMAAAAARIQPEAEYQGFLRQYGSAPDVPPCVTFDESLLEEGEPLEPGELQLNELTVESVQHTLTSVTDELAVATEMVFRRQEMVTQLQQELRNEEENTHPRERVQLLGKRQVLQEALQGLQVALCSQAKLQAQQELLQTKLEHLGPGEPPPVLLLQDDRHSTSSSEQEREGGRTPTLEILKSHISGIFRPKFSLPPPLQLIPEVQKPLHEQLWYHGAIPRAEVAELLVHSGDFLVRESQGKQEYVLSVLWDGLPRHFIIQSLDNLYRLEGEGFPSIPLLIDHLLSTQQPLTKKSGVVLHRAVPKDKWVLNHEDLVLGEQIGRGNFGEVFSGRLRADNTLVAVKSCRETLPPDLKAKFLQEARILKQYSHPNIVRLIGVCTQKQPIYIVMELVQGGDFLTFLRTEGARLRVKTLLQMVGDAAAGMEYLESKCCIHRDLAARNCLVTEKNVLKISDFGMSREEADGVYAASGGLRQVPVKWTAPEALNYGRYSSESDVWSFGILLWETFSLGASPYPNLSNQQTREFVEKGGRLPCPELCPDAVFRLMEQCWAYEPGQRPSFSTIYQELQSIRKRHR

c-Abl (mouse) = test: as above
Fyn = Fyn (UniProt P06241); test: as above
Chain of Fyn (P06241 whole entry, looked up): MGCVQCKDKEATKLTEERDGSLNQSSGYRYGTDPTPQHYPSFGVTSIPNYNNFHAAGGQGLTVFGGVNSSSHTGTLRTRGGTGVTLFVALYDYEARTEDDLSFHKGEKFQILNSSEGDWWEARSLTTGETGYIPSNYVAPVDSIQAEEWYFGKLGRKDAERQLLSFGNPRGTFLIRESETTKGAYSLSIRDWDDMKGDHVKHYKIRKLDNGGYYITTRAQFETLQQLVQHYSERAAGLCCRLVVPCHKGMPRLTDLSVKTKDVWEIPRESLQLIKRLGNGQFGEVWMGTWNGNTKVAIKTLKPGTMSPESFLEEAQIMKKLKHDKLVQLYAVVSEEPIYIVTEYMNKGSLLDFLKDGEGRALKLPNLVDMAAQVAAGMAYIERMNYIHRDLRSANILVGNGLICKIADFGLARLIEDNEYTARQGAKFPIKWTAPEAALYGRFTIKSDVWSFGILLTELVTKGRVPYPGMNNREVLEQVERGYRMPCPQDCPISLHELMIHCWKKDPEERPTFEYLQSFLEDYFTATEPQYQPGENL

AncSZ = test: as above
Fer (mouse) = test: as above
c-Src = test: as above
Hck = Hck (UniProt P08631); test: as above
Chain of Hck (P08631 whole entry, looked up): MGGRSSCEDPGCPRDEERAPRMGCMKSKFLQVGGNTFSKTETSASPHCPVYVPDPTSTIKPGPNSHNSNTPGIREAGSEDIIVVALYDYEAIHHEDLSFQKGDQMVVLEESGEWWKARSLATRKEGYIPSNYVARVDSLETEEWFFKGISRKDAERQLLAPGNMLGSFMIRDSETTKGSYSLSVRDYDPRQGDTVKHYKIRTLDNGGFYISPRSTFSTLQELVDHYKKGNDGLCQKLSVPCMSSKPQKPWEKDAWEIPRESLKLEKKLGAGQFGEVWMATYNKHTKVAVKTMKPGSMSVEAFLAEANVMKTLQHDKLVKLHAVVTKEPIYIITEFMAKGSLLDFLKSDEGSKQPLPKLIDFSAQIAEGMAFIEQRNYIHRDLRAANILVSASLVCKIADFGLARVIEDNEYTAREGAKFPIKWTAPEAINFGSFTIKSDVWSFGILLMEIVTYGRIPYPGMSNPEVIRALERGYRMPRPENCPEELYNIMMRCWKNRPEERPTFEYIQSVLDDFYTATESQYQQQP

FGFR3 = FGFR3 (UniProt P22607); test: as above
Chain of FGFR3 (P22607 whole entry, looked up): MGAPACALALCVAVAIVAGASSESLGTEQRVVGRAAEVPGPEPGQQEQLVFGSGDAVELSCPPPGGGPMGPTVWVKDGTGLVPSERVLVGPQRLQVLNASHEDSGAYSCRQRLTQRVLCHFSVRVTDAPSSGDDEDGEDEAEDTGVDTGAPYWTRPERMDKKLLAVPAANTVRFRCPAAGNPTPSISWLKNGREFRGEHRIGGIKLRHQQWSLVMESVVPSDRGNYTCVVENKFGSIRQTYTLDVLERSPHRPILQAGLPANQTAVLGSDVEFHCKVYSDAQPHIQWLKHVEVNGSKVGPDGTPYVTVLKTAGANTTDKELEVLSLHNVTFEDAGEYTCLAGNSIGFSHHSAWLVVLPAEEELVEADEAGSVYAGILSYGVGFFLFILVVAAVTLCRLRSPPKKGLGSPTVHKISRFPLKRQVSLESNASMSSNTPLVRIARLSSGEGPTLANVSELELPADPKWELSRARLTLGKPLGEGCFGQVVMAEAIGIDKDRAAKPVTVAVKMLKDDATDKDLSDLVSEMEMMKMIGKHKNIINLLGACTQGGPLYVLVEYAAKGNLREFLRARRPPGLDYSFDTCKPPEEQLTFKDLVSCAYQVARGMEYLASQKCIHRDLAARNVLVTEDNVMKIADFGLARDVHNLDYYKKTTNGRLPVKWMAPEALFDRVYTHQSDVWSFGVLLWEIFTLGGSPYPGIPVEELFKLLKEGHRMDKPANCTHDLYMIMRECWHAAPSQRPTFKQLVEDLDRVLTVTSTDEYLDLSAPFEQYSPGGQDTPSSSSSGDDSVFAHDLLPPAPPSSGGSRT

c-Src SH2 = test: SH2 binding enrichment of the phosphorylated peptide, bacterial display (enrichment ratio); higher = better substrate or ligand; peptides without Tyr show the background
SHP2-C SH2 = test: as above
Grb2 SH2 = Grb2 SH2 (UniProt P62993); test: as above
Chain of Grb2 SH2 (P62993 whole entry, looked up, the tested form may be a part): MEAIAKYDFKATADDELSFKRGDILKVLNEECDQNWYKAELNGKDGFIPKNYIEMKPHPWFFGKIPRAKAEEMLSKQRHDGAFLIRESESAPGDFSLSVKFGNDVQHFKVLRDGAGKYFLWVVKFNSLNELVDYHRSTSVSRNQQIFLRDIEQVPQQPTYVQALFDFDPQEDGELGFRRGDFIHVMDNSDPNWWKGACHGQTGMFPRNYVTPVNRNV
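For SH2 binding enrichment of the phosphorylated peptide, bacterial display in this document: peptide library displayed on the E. coli surface as eCPX fusions, selected cells deep-sequenced, score is each peptide's frequency after selection divided by its frequency in the input.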
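For phosphorylation enrichment, bacterial display in this document: 11-residue human phosphosite peptides and single-mutation variants displayed on the E. coli surface, counted by deep sequencing, each peptide's frequency after selection divided by its frequency in the unselected input library; frequency after pTyr selection over input frequency; kinase dosed for 20-30% of maximal phosphorylation in three min.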

Chain of MERTK (Q12866 whole entry, looked up): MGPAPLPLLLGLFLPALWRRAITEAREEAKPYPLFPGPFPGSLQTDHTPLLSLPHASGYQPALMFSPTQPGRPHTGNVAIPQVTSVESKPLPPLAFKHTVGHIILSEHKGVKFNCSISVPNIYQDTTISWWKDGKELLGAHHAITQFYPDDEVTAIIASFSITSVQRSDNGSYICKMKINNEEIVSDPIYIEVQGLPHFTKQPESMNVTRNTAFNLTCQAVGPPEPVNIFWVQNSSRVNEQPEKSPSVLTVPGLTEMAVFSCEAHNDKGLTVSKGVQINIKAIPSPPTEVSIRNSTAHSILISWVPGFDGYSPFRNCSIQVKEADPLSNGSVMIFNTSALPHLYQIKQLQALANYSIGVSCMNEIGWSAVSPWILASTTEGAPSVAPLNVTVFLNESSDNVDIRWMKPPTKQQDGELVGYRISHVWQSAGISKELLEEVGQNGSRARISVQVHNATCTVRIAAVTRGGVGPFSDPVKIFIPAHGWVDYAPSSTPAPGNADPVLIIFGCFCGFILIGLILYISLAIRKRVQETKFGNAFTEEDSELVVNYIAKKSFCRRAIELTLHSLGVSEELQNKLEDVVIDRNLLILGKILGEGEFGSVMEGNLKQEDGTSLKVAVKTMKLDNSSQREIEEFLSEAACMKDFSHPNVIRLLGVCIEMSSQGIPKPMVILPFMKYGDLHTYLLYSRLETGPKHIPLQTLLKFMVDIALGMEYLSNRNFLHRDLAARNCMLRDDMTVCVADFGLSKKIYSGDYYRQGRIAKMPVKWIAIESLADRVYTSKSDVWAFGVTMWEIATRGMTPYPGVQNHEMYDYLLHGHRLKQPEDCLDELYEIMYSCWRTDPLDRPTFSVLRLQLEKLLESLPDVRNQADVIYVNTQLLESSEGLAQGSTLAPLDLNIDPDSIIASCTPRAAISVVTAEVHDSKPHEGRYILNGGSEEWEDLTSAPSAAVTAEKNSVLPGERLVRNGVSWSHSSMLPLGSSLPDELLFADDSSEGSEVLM

Sequence | phosphorylation enrichment (EPHB1) | phosphorylation enrichment (MERTK) | phosphorylation enrichment (EPHB2) | phosphorylation enrichment (Jak2) | phosphorylation enrichment (FGFR1) | phosphorylation enrichment (Fes) | phosphorylation enrichment (c-Abl (mouse)) | phosphorylation enrichment (Fyn) | phosphorylation enrichment (AncSZ) | phosphorylation enrichment (Fer (mouse)) | phosphorylation enrichment (c-Src) | phosphorylation enrichment (Hck) | phosphorylation enrichment (FGFR3) | SH2 binding enrichment (c-Src SH2) | SH2 binding enrichment (SHP2-C SH2) | SH2 binding enrichment (Grb2 SH2)
EKAEVYGSENE [RIOK2_Y348] | 0.464 | 0.445 | 0.52 | 0.911 | 0.455 | 1 | 0.609 | 0.566 | 1.11 | 0.457 | 0.483 | 0.464 | 0.625 | 0.618 | 0.567 | 0.825
EKESCYILHSS [PATJ_Y783_E779K] | 0.531 | 0.533 | 0.519 | 0.936 | 0.572 | 1.09 | 0.707 | 0.549 | 1.28 | 0.623 | 0.595 | 0.497 | 0.77 | 0.719 | 0.694 | 0.959
EKGEEYGGGGG [TUBA1A_Y451_E447K] | 0.585 | 0.296 | 0.574 | 0.578 | 0.578 | 0.855 | 0.384 | 0.448 | 0.847 | 0.499 | 0.293 | 0.63 | 0.67 | 0.51 | 0.729 | 0.911
EKLQKYYRKNP [EHHADH_Y682_Q685K] | 0.471 | 0.394 | 0.484 | 0.694 | 0.45 | 0.753 | 0.699 | 0.388 | 0.575 | 0.417 | 0.482 | 0.353 | 0.598 | 0.603 | 1.11 | 0.95
EKPAKYDDIKK [GAPDH_Y255] | 0.441 | 0.334 | 0.452 | 0.745 | 0.391 | 1.01 | 0.632 | 0.316 | 0.782 | 0.392 | 0.352 | 0.426 | 0.503 | 1.34 | 0.662 | 0.657
EKRDAYVSRLN [GSR_Y150] | 0.455 | 0.397 | 0.434 | 0.48 | 0.418 | 0.575 | 0.423 | 0.351 | 0.547 | 0.328 | 0.377 | 0.429 | 0.441 | 0.43 | 0.608 | 0.772
ELTAKYLNYYR [P3H4_Y181_Q186R] | 0.606 | 0.496 | 0.512 | 0.616 | 0.498 | 0.748 | 0.498 | 0.369 | 0.639 | 0.392 | 0.374 | 0.419 | 0.541 | 0.666 | 0.948 | 2.44
ENEGTYVCIAA [ADAMTSL3_Y1365_T1370A] | 1.55 | 0.69 | 1.09 | 1.05 | 1.53 | 1.36 | 1.08 | 1.39 | 1.34 | 1.05 | 1.75 | 1.21 | 1.62 | 0.425 | 0.402 | 0.471
ENGPFYTSFPP [GDAP2_Y488_YF] | 2.92 | 13.1 | 2.41 | 1.61 | 3.86 | 1.04 | 8.39 | 8.74 | 1.12 | 4.74 | 6.71 | 7.05 | 2.62 | 0.83 | 0.711 | 0.813
EPNSRYTCKLE [USH2A_Y3745_Y3747C] | 0.556 | 0.497 | 0.562 | 0.897 | 0.621 | 0.985 | 0.762 | 0.563 | 1.02 | 0.566 | 0.539 | 0.549 | 0.724 | 0.576 | 0.826 | 1.06
EQQRAYLEGTC [HLA-C_Y183_L180Q] | 0.647 | 0.521 | 0.555 | 0.93 | 0.599 | 1.03 | 0.834 | 0.518 | 0.939 | 0.455 | 0.531 | 0.556 | 0.602 | 0.69 | 0.758 | 0.916
EQSGSYIWVLA [DLG1_Y895_P899L] | 0.634 | 0.504 | 0.641 | 1.14 | 1.11 | 1.32 | 0.705 | 0.482 | 1.27 | 0.526 | 0.476 | 0.517 | 0.917 | 0.383 | 0.394 | 0.65
EREYKYGAHNY [OAT_Y50] | 0.354 | 0.397 | 0.376 | 0.5 | 0.348 | 0.558 | 0.506 | 0.445 | 0.516 | 0.35 | 0.394 | 0.333 | 0.43 | 0.623 | 0.783 | 0.927
ERRLIYASDPK [VPS13D_Y864_T865A] | 0.443 | 0.45 | 0.391 | 0.506 | 0.46 | 0.678 | 0.545 | 0.418 | 0.634 | 0.395 | 0.475 | 0.473 | 0.479 | 0.625 | 0.589 | 0.837
ESKKHYGFSLF [ANXA3_Y295_F291S_YF] | 0.574 | 0.526 | 0.541 | 0.93 | 0.572 | 1.03 | 0.676 | 0.513 | 1.01 | 0.526 | 0.453 | 0.528 | 0.678 | 0.644 | 0.717 | 1.03
ESLRPYDVMDV [KCNQ2_Y562] | 0.583 | 0.437 | 0.683 | 0.876 | 0.455 | 1.14 | 0.595 | 0.668 | 1.03 | 0.846 | 0.719 | 0.602 | 0.665 | 12.9 | 0.558 | 0.83
